Patent publication US20050032744A1

How the values were obtained:
[1] = molecular target: adenylyl cyclase (AC) in rat dorsal root ganglia (DRG) lysates (rat); assay: cell-based or functional assay
[2] = molecular target: adenylyl cyclase (AC) in rat spinal cord lysates / membrane preparations (rat); assay: cell-based or functional assay

inhibition of Gαs-stimulated AC activity, DRG lysates, 30 nM PAM [1]: 32%
inhibition of Gαs-stimulated AC activity, spinal cord lysates of animals treated for 1 hour with formalin, 30 nM PAM [2]: 25%
inhibition of Gαs-stimulated AC activity, spinal cord lysates of control animals, 30 nM PAM [2]: 49%
inhibition of Gαs-stimulated AC activity, spinal cord lysates of rats 96 hours after zymosan injection, 30 nM PAM [2]: 70%
Substance: Protein Associated with Myc (PAM), human, full length, purified from HeLa cells (from UniProt O75592 1-4678)
